Laboratory results taken from US20130230533A1 (Regeneron, published 2013).

T1: Dimeric monkey CD48-mFc (monkey)
T1 construct: Soluble monkey CD48 with a C-terminal Fc fusion [mFc]; the whole entry is the construct
T1 chain: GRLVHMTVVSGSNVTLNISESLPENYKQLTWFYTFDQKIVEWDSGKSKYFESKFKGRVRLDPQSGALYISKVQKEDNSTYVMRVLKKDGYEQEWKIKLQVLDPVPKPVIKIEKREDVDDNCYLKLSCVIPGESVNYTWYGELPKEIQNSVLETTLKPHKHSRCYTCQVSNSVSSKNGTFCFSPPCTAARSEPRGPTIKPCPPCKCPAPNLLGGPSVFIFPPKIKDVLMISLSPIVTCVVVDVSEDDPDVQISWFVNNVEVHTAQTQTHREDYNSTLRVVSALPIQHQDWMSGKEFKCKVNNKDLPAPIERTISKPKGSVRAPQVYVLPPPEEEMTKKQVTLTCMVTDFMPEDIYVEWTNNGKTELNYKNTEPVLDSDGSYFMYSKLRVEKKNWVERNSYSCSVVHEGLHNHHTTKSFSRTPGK

T2: Monomeric monkey CD48-mmH (monkey)
T2 construct: Soluble monkey CD48 with a myc-myc-hexa-histidine C-terminal tag; the whole entry is the construct; also called mfCD48-mmH
T2 chain: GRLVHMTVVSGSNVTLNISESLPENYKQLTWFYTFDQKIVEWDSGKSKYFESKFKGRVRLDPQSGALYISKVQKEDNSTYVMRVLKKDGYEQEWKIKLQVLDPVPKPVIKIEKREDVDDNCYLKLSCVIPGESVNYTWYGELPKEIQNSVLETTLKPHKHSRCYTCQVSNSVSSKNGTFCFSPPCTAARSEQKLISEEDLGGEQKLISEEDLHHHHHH

T3: Monomeric human CD48-mmH (human)
T3 chain: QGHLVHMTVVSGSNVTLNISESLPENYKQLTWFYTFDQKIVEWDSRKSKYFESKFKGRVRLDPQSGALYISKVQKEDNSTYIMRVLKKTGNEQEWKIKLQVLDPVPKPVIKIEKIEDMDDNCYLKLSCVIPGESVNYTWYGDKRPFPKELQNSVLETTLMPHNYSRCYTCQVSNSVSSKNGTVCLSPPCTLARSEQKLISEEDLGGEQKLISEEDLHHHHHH

T4: Dimeric human CD48-mFc (human)
T4 construct: the whole entry is the construct; also called hCD48-mFc
T4 chain: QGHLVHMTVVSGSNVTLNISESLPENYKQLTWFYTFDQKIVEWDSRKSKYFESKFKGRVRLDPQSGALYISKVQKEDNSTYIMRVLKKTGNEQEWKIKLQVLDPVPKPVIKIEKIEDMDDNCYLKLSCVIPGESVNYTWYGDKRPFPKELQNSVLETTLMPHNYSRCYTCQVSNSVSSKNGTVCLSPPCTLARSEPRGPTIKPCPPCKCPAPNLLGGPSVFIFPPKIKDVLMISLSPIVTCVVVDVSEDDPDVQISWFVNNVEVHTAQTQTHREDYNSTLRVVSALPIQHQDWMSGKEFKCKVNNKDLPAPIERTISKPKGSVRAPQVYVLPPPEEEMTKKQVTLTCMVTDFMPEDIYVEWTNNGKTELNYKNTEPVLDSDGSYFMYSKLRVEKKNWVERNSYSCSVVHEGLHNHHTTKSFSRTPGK

B1: H4H1764N (antibody, V domains shown)
VH: QVQLVESGGGVVQPGRSLRLSCAASGFTFSDYGMHWVRQAPGKGLEWVAVIWNDGSNKNYADSVKGRFSISSDSSKNTLYLHMNSLRAEDTAVYYCARSLYSTSPWYFDLWGRGTLVTVSS
VL: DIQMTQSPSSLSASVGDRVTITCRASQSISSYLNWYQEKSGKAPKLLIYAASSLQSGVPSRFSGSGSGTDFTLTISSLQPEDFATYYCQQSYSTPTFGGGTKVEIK
notes: Human IgG4 Fc (H4H)
B2: H4H1770P (antibody, human IgG4, V domains shown)
VH: QVQLVQSGAEVKKPGAAVKVSCKASGYTFTAYGISWVRQAPGQGLEWMGWISAYDGDTNNAQKFQGRVTMTTDTSSSTAYMELRSLGSDDTAVYYCARDRYSSSSGYFDYWGQGTLVTVSS
VL: DIQMTQSPSSVSASVGDRVTITCRASQDISSWLAWSQQKPGKAPKALIYAASSLQSGVPSRFSGSGSGTDFTLTISSLQPEDFATYYCQQANSFPYTFGQGTKLEIK
notes: Human IgG4 Fc (H4H)
B3: H4H1707N (antibody, V domains shown)
VH: EGQLLESGGGLAQPGGSLRLSCAASGITFGRYAMSWVRQAPGKGLEWVSLISGSGGSTYHADSVKGRFTISRDNSKNTLYLQMNSLRAEDTAVYYCAIYNNYNWFDPWGQGTLVTVSS
VL: EIVLTQSPGTLSLSPGERATLSCRASQSVSSNYLAWYQQKPGQAPRLLIYDASSRATDIPDRFSGSGSGTDFTLTISRLEPEDFAVYYCQQYGSSPRTFGQGTKVEIK
notes: Human IgG4 Fc (H4H)
B4: H4H1771P (antibody, human IgG4, V domains shown)
VH: QVQLVQSGTEVKKPGASVKVSCKVSGYTLIDLSIHWVRQAPGEGLEWMGGFDPEESETIYAQKFQGRVTMTEDTSTDTAYMELSSLRSEDTAVYYCVTEPIFGILIHESWGQGTLVTVSS
VL: DIVMTQTPLSSPVTLGQPASISCRSSHSPVHSNGHTYLSWLQQRPGQPPRILIYKISRRFSGVPDRFSGSGAGTDFTLKISRVETEDVGIYYCMQASQFPWTFGQGTKVEIK
notes: Human IgG4 Fc (H4H)
B5: H4H1763N (antibody, V domains shown)
VH: QIQLVQSGAEMKRPGTSVKVSCKASGYTFTSYGINWVRQAPGQGLEWMGWISAYNGDTNYAQKLQGRVTMTTDTSTTTAYMEVRSLRSDDTAVYYCARFLTGTKDYYYGMDVWGQGTTVTVSS
VL: DIQMTQSPSSLSASVGDRVTITCQASQDISNFLNWYQQKPGKAPDLLINDASILETGVPSRFSGSGSGTDFTLTINNLQPEDIATYYCQQYDNLPLTFGGGTKVEIK
notes: Human IgG4 Fc (H4H)
B6: H4H1772P (antibody, human IgG4, V domains shown)
VH: EVQLVESGGGLVQPGGSLRLSCAASGFTFSSYWMSWVRQAPGKGLEWVANIMRDGSEKYYVDSVKGRFTISRDNAKNSLYLQMNSLRGEDTAVYYCARERGFYTNYGNWFDPWGQGTLVTVSS
VL: DIVMTQSPLSLTVTPGESASISCRSSQSLLHSYGYNSLDWYLQKPGQSPQFLIYLVSNRASGVPDRFSGSGSGTDFTLKISRVEAEDVGVYYCMQVLQTPYTFGQGTKLEIK
notes: Human IgG4 Fc (H4H)
B7: H4H1713N (antibody, V domains shown)
VH: QVQLVQSGAEVKKPGASVKVSCKASGHTFTNYYIHWVRQAPGQGLEWMGITNPNDGNTRYAQKFQGRISMTWDTSTSTVFMELSSLKSEDTAVYYCAGLRYWFFDLWGRGTPVTVSS
VL: DIQMTQSPSSVSASVGDRVTITCRASQDISSWLAWYQQKPGKAPNLLIFAASSLQSGVPSRFSGSGSGTDFTLTISSLQPEDFGTYYCQQTDNFPRTFGQGTKVEIN
notes: Human IgG4 Fc (H4H)

Molecular target: T1, Dimeric monkey CD48-mFc
Assay: SPR (Biacore), antibody captured by anti-Fc, CD48 in solution, 25 C
Procedure: (§1) Measurements were conducted on a T100-2 BIACORE™ instrument (Biacore Life Sciences division of GE Healthcare, Piscataway, N.J.). Antibodies (either with mouse Fc [designated “H2M” or “H3M”] or human IgG4 Fc [designated “H4H”]) were captured through an anti-Fc chip surface, and CD48 was flowed over the surface either in a monomeric (soluble CD48 expressed with a myc-myc-hexa-histidine C-terminal tag [mmH]) or dimeric (soluble CD48 expressed with a C-terminal Fc fusion [mFc]) format.
(§2) The soluble CD48 was applied to the flow cell in separate injections at different concentrations, and kinetic association (kₐ) and dissociation (kd) rate constants were determined by fits to the kinetic binding data using Biacore software. Binding dissociation equilibrium constants and dissociation half-times were calculated from the kinetic rate constants as: KD=kd/kₐ; t_{1/2}=(ln 2/kd) (units: ka=M⁻¹*s⁻¹; kd=s⁻¹; KD=M; T½=min) (Tables 3-6).

Kd [nM] | T½ [min] | koff [s⁻¹] | kon [M⁻¹ s⁻¹] | Binder
0.525 | 88 | 0.000132 | 251000 | B1
0.131 | 103 | 0.000113 | 858000 | B2
1.48 | 10 | 0.00119 | 805000 | B3
0.0587 | 210 | 5.51e-05 | 939000 | B4
0.0519 | 168 | 6.88e-05 | 1.33e+06 | B5
0.0968 | 230 | 5.02e-05 | 519000 | B6
0.281 | 48 | 0.000242 | 861000 | B7

Molecular target: T2, Monomeric monkey CD48-mmH
Assay: as above
Procedure: as §1, §2

Kd [nM] | T½ [min] | koff [s⁻¹] | kon [M⁻¹ s⁻¹] | Binder
2.34 | 56 | 0.000206 | 87700 | B1
0.298 | 54 | 0.000215 | 720000 | B2
1.25 | 32 | 0.000362 | 289000 | B3
0.453 | 24 | 0.000477 | 1.05e+06 | B4
2.34 | 9 | 0.00124 | 527000 | B5
1.1 | 23 | 0.000508 | 461000 | B6
0.843 | 44 | 0.000265 | 315000 | B7

Molecular target: T1, Dimeric monkey CD48-mFc
Assay: SPR (Biacore), antibody captured by anti-Fc, CD48 in solution, 37 C
Procedure: as §1, §2

Kd [nM] | T½ [min] | koff [s⁻¹] | kon [M⁻¹ s⁻¹] | Binder
7.4 | 8 | 0.00142 | 192000 | B1
0.0911 | 83 | 0.000139 | 1.53e+06 | B2
3.2 | 2 | 0.00524 | 1.64e+06 | B3
0.0621 | 113 | 0.000102 | 1.64e+06 | B4
0.047 | 101 | 0.000114 | 2.42e+06 | B5
0.0947 | 158 | 7.31e-05 | 772000 | B6
0.3 | 22 | 0.000516 | 1.72e+06 | B7

Molecular target: T3, Monomeric human CD48-mmH
Assay: as above
Procedure: as §1, §2

Kd [nM] | T½ [min] | koff [s⁻¹] | kon [M⁻¹ s⁻¹] | Binder
109 | 1 | 0.0114 | 105000 | B1
0.662 | 22 | 0.000533 | 804000 | B2
9.63 | 4 | 0.00273 | 284000 | B3
0.488 | 21 | 0.000547 | 1.12e+06 | B4
12.7 | 1 | 0.0169 | 1.33e+06 | B5
5.94 | 11 | 0.00102 | 172000 | B6
2.23 | 18 | 0.000636 | 286000 | B7

Molecular target: T4, Dimeric human CD48-mFc
Assay: as above
Procedure: as §1, §2

Kd [nM] | T½ [min] | koff [s⁻¹] | kon [M⁻¹ s⁻¹] | Binder
0.33 | 116 | 9.94e-05 | 301000 | B1
0.0138 | 375 | 3.08e-05 | 2.23e+06 | B2
0.0654 | 180 | 6.42e-05 | 981000 | B3
0.0166 | 240 | 4.81e-05 | 2.89e+06 | B4
0.0267 | 184 | 6.28e-05 | 2.35e+06 | B5
0.065 | 193 | 5.98e-05 | 920000 | B6
0.036 | 255 | 4.53e-05 | 1.26e+06 | B7

Molecular target: T2, Monomeric monkey CD48-mmH
Assay: as above
Procedure: as §1, §2

Kd [nM] | T½ [min] | koff [s⁻¹] | kon [M⁻¹ s⁻¹] | Binder
2.91 | 19 | 0.00062 | 213000 | B1
0.44 | 66 | 0.000174 | 396000 | B2
3.72 | 9 | 0.00122 | 327000 | B3
1.34 | 13 | 0.000877 | 657000 | B4
2.49 | 9 | 0.00133 | 534000 | B5
4.53 | 8 | 0.00145 | 320000 | B6
1.19 | 30 | 0.000382 | 320000 | B7
